According to patent US20200277374A1 (Alector, published 2020):

How the values were obtained:
[1] = target: T1, human Siglec-7 expressed on human cells (primary monocytes, dendritic cells, macrophages, NK cells, … (human, UniProt Q9Y286 19-467)); experiment: cell-based or functional assay
[2] = target: T1, human Siglec-7 expressed on human cells …; experiment: FACS, human primary dendritic cells, 10 ug/ml mAb
[3] = target: T1, human Siglec-7 expressed on human cells …; experiment: FACS titration on primary human dendritic cells, donor 358, 4 C
Protocol: Two Siglec-7 antibodies, 4E3 and 10B5, were titrated 2-fold for a 12-point curve with a concentration range of 6.67-0.00325 nM to assess binding and calculate half-maximal concentration (EC₅₀) for binding to primary human dendritic cells (FIG. 5B). Antibodies were serially diluted and incubated with cells in PBS with 1% BSA, 1 mM EDTA for 1 hour on ice (4° C.). Cells were pelleted and resuspended with goat anti-mouse secondary antibody conjugated with APC (BD Biosciences) at a 1:200 dilution in buffer. Secondary detection antibody was incubated for 30 minutes on ice (4° C.), then cells were washed 3 times in buffer before analyzing on a BD FACS Canto for APC MR. Data were analyzed with FlowJo Software (TreeStar).

T1 sequence (Q9Y286 19-467): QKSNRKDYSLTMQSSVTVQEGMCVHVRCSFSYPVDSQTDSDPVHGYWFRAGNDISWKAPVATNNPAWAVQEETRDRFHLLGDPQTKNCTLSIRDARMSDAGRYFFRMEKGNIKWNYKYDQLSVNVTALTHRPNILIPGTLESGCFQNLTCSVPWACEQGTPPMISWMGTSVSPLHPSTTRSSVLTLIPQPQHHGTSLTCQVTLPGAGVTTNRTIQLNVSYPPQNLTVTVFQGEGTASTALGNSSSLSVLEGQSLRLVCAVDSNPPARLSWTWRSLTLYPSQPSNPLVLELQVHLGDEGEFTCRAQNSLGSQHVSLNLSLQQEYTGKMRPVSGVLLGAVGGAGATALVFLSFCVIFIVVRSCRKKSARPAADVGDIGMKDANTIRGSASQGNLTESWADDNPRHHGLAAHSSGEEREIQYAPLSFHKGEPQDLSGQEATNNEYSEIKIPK

- Percent Siglec-7 Surface Expression, Macrophages [1]: 3.2%
- Percent Siglec-7 Surface Expression, Microglia [1]: 5.5%
- Percent Siglec-7 Surface Expression, NK cells [1]: 25.5%
- % Positive [2]: 99.6%
- MFI [2]: 3230
- EC50 [3]: 1.43 nM
B1: anti-Siglec-7 antibody 10B5 (antibody, V domains shown)
VH: QVHLQQSGPELVKPGASVKISCKASGYAFTNCWMNWVRQRPGKGLDWIGRIFPGNGHTNYSGKFKDKATLTEDKSSSTAYMQLSSLTSEDSAVYFCARDYSDYYFDYWGQGTTLTVSS
VL: DVQMTQTTSSLSASLGDRVTISCRASQDINTYLNWYQQKPDGTVKLLIYYTSRLHSGVPSRFSGSGSGTDYSLTISNLEQEDIATYFCQQGNTLPWTFGGGTKLEIK
notes: that light chain holds several Z and differs in its CDRs from S7-10B5.1 / 10B5L1; also called S7-10B5; mAb S7-10B5
